Measurements as given in PMC9719539, “Single-molecule characterization of subtype-specific β1 integrin mechanics” (Nature Communications, 2022).
pKd: −log10 of the molar value.

How the values were obtained:
[1] = biological target: integrin α5β1, intact, on wild type K562 cells (human (endogenous in K562)) (UniProt P08648); assay: flow cytometry on cells; saturation binding of cRGDfK-TF5WS to K562 cells in L15 with 2 µM 12G10 Fab, which stabilizes the EO state (intrinsic affinity for the EO state); no washing
[2] = biological target: integrin αVβ3, intact, on K562 αVβ3 stable transfectants (human) (UniProt P06756); assay: flow cytometry on cells; saturation binding of cRGDfK-TF5WS to K562 transfectants in L15 medium with 1% BSA and 1 mM Mn2+, no washing; background MFI measured with 10 mM EDTA and subtracted
[3] = biological target: integrin αVβ5, intact, on K562 αVβ5 stable transfectants (human) (UniProt P06756); assay: as above
integrin αVβ5, intact, on K562 αVβ5 stable transfectants (human), sequence (P06756 31-1048, chain 1 of 2): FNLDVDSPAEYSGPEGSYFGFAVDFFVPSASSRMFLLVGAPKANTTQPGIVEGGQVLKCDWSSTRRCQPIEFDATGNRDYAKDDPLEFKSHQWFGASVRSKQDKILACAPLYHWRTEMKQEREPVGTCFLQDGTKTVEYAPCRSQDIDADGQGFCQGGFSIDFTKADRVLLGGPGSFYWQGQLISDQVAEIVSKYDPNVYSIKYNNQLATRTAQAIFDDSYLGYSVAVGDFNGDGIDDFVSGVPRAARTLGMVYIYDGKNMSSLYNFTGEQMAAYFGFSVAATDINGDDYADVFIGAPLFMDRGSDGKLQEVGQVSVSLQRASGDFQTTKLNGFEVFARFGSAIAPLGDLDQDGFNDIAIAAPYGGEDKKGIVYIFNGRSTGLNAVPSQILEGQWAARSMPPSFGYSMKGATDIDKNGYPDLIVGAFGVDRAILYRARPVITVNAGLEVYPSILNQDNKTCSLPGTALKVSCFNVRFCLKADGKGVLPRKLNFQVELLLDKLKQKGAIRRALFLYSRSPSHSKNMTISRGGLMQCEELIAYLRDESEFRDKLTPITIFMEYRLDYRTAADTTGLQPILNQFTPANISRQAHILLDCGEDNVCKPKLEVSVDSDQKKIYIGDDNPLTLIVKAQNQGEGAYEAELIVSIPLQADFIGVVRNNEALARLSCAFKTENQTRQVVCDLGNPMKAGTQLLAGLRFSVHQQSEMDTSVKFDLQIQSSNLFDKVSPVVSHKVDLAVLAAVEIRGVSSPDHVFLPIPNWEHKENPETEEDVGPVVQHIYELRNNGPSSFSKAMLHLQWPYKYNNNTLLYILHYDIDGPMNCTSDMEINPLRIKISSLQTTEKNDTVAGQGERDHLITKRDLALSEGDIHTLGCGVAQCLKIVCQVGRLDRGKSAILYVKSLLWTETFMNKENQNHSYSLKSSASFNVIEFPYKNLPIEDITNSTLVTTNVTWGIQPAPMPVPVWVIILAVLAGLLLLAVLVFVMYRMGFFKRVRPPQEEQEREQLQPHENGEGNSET
integrin αVβ5, intact, on K562 αVβ5 stable transfectants (human), sequence (P18084 24-799, chain 2 of 2, further chain): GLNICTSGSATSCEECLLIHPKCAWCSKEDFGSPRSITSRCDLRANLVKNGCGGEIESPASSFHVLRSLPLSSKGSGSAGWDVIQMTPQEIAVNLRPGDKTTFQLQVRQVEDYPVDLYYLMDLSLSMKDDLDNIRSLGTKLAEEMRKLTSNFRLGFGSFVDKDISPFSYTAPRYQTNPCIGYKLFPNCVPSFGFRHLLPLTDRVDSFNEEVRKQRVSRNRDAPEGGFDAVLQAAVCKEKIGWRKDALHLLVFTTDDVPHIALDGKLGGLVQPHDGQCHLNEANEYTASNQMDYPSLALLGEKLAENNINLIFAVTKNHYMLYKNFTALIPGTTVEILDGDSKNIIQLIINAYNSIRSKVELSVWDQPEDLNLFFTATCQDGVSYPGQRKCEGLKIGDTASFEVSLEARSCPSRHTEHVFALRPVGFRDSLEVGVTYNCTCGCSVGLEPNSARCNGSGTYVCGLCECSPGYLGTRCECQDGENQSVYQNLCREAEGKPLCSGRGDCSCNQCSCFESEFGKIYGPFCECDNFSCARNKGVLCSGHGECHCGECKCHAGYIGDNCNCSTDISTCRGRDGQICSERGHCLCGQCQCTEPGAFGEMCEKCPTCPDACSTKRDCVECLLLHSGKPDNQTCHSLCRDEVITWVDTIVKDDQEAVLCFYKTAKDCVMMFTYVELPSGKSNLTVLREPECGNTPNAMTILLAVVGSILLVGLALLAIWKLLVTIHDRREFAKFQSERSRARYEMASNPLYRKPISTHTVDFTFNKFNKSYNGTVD

integrin αVβ3, intact, on K562 αVβ3 stable transfectants (human), sequence (P06756 31-1048, chain 1 of 2): as the sequence (P06756 31-1048, chain 1 of 2) above
integrin αVβ3, intact, on K562 αVβ3 stable transfectants (human), sequence (P05106 27-788, chain 2 of 2, further chain): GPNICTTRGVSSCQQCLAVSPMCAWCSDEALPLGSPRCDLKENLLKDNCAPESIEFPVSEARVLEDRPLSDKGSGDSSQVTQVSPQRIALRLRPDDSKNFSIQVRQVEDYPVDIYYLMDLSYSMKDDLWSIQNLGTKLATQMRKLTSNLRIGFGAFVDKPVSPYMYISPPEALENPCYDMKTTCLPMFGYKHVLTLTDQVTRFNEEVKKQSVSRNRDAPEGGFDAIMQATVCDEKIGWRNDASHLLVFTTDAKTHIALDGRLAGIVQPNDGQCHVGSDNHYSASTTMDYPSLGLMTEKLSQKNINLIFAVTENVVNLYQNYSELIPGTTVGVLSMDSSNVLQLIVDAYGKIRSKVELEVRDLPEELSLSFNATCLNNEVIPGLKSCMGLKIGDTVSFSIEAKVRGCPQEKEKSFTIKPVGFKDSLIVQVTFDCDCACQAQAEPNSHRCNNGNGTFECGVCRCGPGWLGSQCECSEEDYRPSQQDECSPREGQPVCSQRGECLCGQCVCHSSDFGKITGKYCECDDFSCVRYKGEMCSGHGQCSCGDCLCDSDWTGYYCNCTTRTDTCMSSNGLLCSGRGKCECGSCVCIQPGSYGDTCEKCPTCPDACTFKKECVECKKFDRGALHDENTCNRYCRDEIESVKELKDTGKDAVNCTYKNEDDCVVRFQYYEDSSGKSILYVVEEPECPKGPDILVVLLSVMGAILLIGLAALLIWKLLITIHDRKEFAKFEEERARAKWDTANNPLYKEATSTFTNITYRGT
integrin α5β1, intact, on wild type K562 cells (human (endogenous in K562)), sequence (P08648 42-1049, chain 1 of 2): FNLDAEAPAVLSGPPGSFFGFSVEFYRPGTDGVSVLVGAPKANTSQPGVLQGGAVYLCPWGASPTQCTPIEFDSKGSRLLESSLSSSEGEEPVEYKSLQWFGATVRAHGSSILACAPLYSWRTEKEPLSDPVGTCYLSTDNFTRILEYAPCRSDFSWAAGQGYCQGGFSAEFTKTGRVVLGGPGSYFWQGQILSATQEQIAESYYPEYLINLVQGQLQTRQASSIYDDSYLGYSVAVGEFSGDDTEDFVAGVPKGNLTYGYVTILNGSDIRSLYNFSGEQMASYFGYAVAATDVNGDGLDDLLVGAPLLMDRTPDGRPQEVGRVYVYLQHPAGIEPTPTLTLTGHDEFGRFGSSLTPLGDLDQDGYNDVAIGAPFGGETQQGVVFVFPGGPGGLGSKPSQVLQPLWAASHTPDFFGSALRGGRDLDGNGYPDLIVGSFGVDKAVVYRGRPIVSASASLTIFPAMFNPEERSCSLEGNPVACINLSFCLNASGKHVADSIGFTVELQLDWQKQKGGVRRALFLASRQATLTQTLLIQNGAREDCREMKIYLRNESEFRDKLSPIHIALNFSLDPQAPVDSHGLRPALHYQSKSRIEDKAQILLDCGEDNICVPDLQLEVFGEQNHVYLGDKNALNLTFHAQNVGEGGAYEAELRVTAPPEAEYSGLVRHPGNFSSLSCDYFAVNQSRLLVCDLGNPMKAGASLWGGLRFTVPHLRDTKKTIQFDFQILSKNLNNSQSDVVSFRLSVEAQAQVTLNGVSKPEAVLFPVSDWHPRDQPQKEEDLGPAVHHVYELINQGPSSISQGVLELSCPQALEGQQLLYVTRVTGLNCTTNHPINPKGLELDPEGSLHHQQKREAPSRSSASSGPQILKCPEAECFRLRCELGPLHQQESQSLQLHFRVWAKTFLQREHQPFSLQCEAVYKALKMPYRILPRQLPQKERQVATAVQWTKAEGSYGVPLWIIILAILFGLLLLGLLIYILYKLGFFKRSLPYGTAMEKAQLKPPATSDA
integrin α5β1, intact, on wild type K562 cells (human (endogenous in K562)), sequence (P05556 21-798, chain 2 of 2, further chain): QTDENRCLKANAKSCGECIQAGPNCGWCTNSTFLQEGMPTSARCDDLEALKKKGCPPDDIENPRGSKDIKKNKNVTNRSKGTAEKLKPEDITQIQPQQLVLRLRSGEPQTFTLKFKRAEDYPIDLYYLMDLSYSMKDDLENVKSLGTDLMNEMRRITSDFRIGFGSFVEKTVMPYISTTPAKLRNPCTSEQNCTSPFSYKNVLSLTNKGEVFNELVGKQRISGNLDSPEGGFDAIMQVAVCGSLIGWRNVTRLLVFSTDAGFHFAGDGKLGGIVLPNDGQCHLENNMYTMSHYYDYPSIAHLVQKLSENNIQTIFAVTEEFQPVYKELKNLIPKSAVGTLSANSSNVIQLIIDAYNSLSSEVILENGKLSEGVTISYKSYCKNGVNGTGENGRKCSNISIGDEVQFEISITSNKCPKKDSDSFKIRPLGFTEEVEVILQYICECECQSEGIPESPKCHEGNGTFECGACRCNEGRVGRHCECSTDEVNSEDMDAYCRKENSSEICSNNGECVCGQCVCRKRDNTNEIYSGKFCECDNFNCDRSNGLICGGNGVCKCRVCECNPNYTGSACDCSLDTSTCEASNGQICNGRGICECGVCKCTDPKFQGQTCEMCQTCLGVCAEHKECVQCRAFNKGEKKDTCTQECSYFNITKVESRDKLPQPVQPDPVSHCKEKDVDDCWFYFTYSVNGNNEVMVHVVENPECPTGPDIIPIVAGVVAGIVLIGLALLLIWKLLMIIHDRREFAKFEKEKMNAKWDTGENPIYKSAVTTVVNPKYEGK

Question: How did the pKd [1] turn out when “cRGDfK peptide with lysine side chain conjugated with TideFluor5WS” was run?
Answer: 7.07

Question: And the pKd [2]?
Answer: 7.55

Question: What about the pKd [3] of the same substance?
Answer: 7.62
